Test results reported in US20050014220A1.

Biological target: bovine thrombin (bovine) (UniProt P00735)
Test: cell-based or functional assay

| Substance | rate of change in absorbance of the chromogenic substrate S2238 at 405 nm (thrombin-dependent activation of protein C on COS cells) [units/min] |
| --- | --- |
| mutated murine thrombomodulin lacking the N-terminal lectin-like domain, expressed on COS cells (from UniProt P15306 17-577) (receptor) | 0.23 |
| wild-type murine thrombomodulin expressed on COS cells (from UniProt P15306 17-577) (receptor) | 0.21 |
